T1: recombinant WASP, full-length (1-502 a.a.) with a GST tag at the N-terminus (human, UniProt P42768 1-502)
T1 construct: Wiskott-Aldrich syndrome protein (WASP), human, full-length protein, 1-502 a.a; source: bought: Abnova (in vitro wheat germ expression system, purified by Glutathione Sepharose 4 Fast Flow); not shown: GST, N-terminal, kept
T1 sequence (looked up): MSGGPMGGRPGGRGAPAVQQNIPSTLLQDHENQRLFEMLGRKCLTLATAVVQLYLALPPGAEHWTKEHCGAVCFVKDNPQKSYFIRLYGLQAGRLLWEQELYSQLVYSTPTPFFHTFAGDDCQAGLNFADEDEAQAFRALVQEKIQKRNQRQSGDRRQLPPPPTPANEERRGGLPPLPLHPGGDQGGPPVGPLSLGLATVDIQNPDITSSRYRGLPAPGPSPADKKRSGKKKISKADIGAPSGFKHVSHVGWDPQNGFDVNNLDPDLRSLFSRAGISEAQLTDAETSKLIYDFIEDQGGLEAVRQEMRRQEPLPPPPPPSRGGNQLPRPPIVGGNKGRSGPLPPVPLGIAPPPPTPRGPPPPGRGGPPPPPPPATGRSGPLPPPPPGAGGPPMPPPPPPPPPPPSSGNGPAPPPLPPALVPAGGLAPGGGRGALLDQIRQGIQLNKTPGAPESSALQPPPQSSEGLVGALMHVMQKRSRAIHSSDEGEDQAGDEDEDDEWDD

T2: recombinant human full-length SRSF2, N-terminally 8X histidine- and SUMO-tagged and C-terminus Strep-tagged (human, UniProt Q01130 1-221, RED-tris-NTA dye on the His tag)
T2 chain: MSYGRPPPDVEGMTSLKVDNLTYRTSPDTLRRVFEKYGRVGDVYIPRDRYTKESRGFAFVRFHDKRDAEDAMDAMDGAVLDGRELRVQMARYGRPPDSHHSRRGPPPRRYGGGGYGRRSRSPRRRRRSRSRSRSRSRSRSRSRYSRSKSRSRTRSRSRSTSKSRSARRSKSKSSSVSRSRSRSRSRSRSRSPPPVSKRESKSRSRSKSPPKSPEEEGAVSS


Assays:
[1] = biological target: T1, recombinant WASP, full-length (1-502 …); assay: MST; Monolith NT.115; SRSF2 labelled with RED-tris-NTA at 1 nM, WASP titrated 90 pM to 3 µM; 50 mM HEPES pH 7.5, 10 mM MgCl2, 100 mM KCl, 0.1 mg/ml BSA, 5% glycerol, 1 mM DTT; conditions: both partners purified
[2] = biological target: T2, recombinant human full-length SRSF2, …; assay: MST

Binder | binding result [1] | Kd [2] [nM]
recombinant human full-length SRSF2, N-terminally 8X histidine- and SUMO-tagged and C-terminus Strep-tagged (natural protein, UniProt Q01130 1-221, looked up, RED-tris-NTA dye on the His tag, No tag cleavage step is described in the purification, so SUMO and Strep were probably still on the protein; The MST methods call it His6-tagged, the expression methods 8X histidine; also called His6-tagged SRSF2; recombinant SRSF2; source: E. coli BL21 (DE3), purified (HisTrap HP, dialysis); not shown: His8, N-terminal, kept) MSYGRPPPDVEGMTSLKVDNLTYRTSPDTLRRVFEKYGRVGDVYIPRDRYTKESRGFAFVRFHDKRDAEDAMDAMDGAVLDGRELRVQMARYGRPPDSHHSRRGPPPRRYGGGGYGRRSRSPRRRRRSRSRSRSRSRSRSRSRYSRSKSRSRTRSRSRSTSKSRSARRSKSKSSSVSRSRSRSRSRSRSRSPPPVSKRESKSRSRSKSPPKSPEEEGAVSS | binds | 
recombinant WASP, full-length (1-502 a.a.) with a GST tag at the N-terminus (natural protein) MSGGPMGGRPGGRGAPAVQQNIPSTLLQDHENQRLFEMLGRKCLTLATAVVQLYLALPPGAEHWTKEHCGAVCFVKDNPQKSYFIRLYGLQAGRLLWEQELYSQLVYSTPTPFFHTFAGDDCQAGLNFADEDEAQAFRALVQEKIQKRNQRQSGDRRQLPPPPTPANEERRGGLPPLPLHPGGDQGGPPVGPLSLGLATVDIQNPDITSSRYRGLPAPGPSPADKKRSGKKKISKADIGAPSGFKHVSHVGWDPQNGFDVNNLDPDLRSLFSRAGISEAQLTDAETSKLIYDFIEDQGGLEAVRQEMRRQEPLPPPPPPSRGGNQLPRPPIVGGNKGRSGPLPPVPLGIAPPPPTPRGPPPPGRGGPPPPPPPATGRSGPLPPPPPGAGGPPMPPPPPPPPPPPSSGNGPAPPPLPPALVPAGGLAPGGGRGALLDQIRQGIQLNKTPGAPESSALQPPPQSSEGLVGALMHVMQKRSRAIHSSDEGEDQAGDEDEDDEWDD |  | 211
